# Measured values: the nanobody polyreactivity screen of Harvey et al. (2022)
# Experiment: yeast display, Sf9 membrane polyspecificity reagent, FACS + sequencing; frameworks hold sequencing errors
# Method in brief: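 Nanobodies came from a synthetic yeast display library in Saccharomyces cerevisiae BJ5465, induced with galactose for 36–48 hours and stained for 1 hour at 4 °C with 10% biotinylated, detergent-solubilized Sf9 membrane reagent. Cells were enriched on streptavidin microbeads and then FACS-sorted, with low and high (top ~1%) gates set on anti-HA fluorescence for expression and streptavidin fluorescence for reagent binding. Each polyreactivity label reflects the gate a clone came from. Genes were amplified by colony PCR, sequenced by MiSeq 2 × 250 and filtered by CDR length.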
row,Sequence,polyreactivity (PSR sort gate)
1,QVQLVESGGGLVQAGGSLRLSCAASGYTFLRYAMGWYRQAPGKERELVAAISRRGGRTYYADSVKGRFTISRDNAKNTVYLQMNSLKPEDTAVYYCAAVNSTQTIGLMDYWGQGTQVTVSS,high polyreactivity
2,QVQLVESGGGLVQAGGSLRLSCAASGYTFLYNAMGWYRQAPGKERELVAAISWNGGRTYYADSVKGRFTISRDNAKNTVYLQMNSLKPEDTAVYYCAKTPSYGRNVDYWGQGTQVTVSS,high polyreactivity
3,QVQLVESGGGLVQAGGSLRLSCAASGYTFNIYAMGWYRQAPGKERELVAAITSRGGGTYYADSVKGRFTISRDNAKNTVYLQMNSLKPEDTAVYYCAADVYSYYHWYTHYDYWGQGTQVTVSS,high polyreactivity
4,QVQLVESGGGLVQAGGSLRLSCAASGYTFNYYAMGWYRQAPGKEREFVASTYADSVKGRFTISRDNAKNTVYLQMNSLKPEDTAVYYCNARNLGRYLVLSYGYWRQGTQVTVSS,low polyreactivity
5,QVQLVESGGGLVQAGGSLRLSCAASGYTFPFYTMGWYRQAPGKERELVAAISNSGTSTYYADSVKGRFTISRHNAKNTVYLQMNSLKPEDTAVYYSNAGRGTRFVYIDGMDYWGQGTQVTVSS,high polyreactivity
6,QVQLVESGGGLVQAGGSLRLSCAASGYTFPSNAMGWYREAPGKERELVAAISSGARTNYADSVKGRFTISRDNAKNTVYLQMNSLKPEDTAVYYCNKAAASFRHFYGYGYWGQGTQVTVSS,low polyreactivity
7,QVQLVESGGGLVQAGGSLRLSCAASGYTFQAYAMGWYRQAPGKERELVAAISFSSGSTYYADSVKGRFTISRDNAKNTVYLQMNSLKPVDTAVYYCATDYPYYGYDYWGHGTQVTVSS,low polyreactivity
8,QVQLVESGGGLVQAGGSLRLSCAASGYTFQKYAMGWYIQAPGKERELVAAITRSGTRTYYADSVKGRFTISRDNAKNTVYLQMNSLKPEDTAVYYCAAETYYSIYDYWGQGTQVTVSS,high polyreactivity
9,QVQLVESGGGLVQAGGSLRLSCAASGYTFQKYAMGWYRQAPGKERELVAAITRSGTRTYYADSVKGRFTISRDNAKNTVYFQMNSLKPEDTAVYYCAAETYYSIYDYWGQGTQVTVSS,high polyreactivity
10,QVQLVESGGGLVQAGGSLRLSCAASGYTFRAYAMGWYRQAPGKEREYVAAISRSGGSTYYADSVKGRFTISRDNAKNTVYLQMNSLKPEDTAVYYCNKVYRWAGYDYWGQGSQVTVSS,high polyreactivity
11,QVQLVESGGGLVQAGGSLRLSCAASGYTFRAYVMGWYRQAPGKERELVAGITRRGGTTYYADSVKGRFTISRDNAKNTVYLQMNSLKPEDTAVYYCNAVFRSGSIPYDSWGQGTQVTVSS,high polyreactivity
12,QVQLVESGGGLVQAGGSLRLSCAASGYTFRHYAMGWYRQEPGKERELVAAITFNGGTTYYADSVKGRFTISRDNAKNTVYLQMNSLKPEDTAVYYCNALPYSRGRWRPLSAVDYWGQGTQVTVSS,high polyreactivity
13,QVQLVESGGGLVQAGGSLRLSCAASGYTFRSYTMGWYRQAPGKERELVAAITSRGTSTYYADSVKGRFTISRDNAKNTVYLQMNSLKPEDTAVYYCAAPIYNGYASWQVYYWGQGTQVTVSS,high polyreactivity
14,QVQLVESGGGLVQAGGSLRLSCAASGYTFRWYAMGWYRQAPGKERELVAAISWSTGRTYYADSVKGRFTISRDNAKNTVYLQMNSLKPEDNAVYYCAASYYVYSGGNYLRYDSWGQGTQVTVSS,high polyreactivity
15,QVQLVESGGGLVQAGGSLRLSCAASGYTFRYYVMGWYIQAPGQERELVATISRGGRTNYADSVKGRFTISRDNAKNTVYLQMNSLKPEDTAVYYCNARTLYAYITRDYWGQGTQVTVSS,high polyreactivity
16,QVQLVESGGGLVQAGGSLRLSCAASGYTFSFNAMGWYRQAPGKEREFVAAIDFGGAGTYYADSVKGRFTISRDTAKKTVYLQMNSLKPEDTAVYYCNARDGVTTEFDYWGQGTQVTVAS,low polyreactivity
17,QVQLVESGGGLVQAGGSLRLSCAASGYTFSKNTMGWYRQAPGKEREFVAAINWSGGSTYYADSVKGRFTISRDNAKNTVYLQMNSLKPEDTAVYYCAARRGGRRGYDYWGQGTQVTVSS,high polyreactivity
18,QVQLVESGGGLVQAGGSLRLSCAASGYTFSNNAMGWYRQAPGKERELVAAISRSTGSTYYADSVKGRFTISRDNAKNTVYLQMNSLKPEDTAVYYCAAEYYVDKSSWYDYWGQGTQVTVSS,high polyreactivity
19,QVQLVESGGGLVQAGGSLRLSCAASGYTFSPNDMGWYRQAPGKERELVAAMTSSVGSTYYADSVKGRFTISRDNAKNTVFLQMNSLKPEDTAVFYCAADTWYLGYPDFWLDYWGQGTQVTVSS,low polyreactivity
20,QVQLVESGGGLVQAGGSLRLSCAASGYTFSRYAMGWYRQAPGKERELVADISRSGGSTDYADSVKGRFTISRDNAKNTVYLQMNSLKPEETAVYYCAKGSWWGYYSYGFDYWGQGTQVTVSS,high polyreactivity
21,QVQLVESGGGLVQAGGSLRLSCAASGYTFSYYDMGWYRQAPGKERELVAGISKRGGSTRYADSVKGRFTISRDNAKNTVYLQMNSLKPEDTAVYYCNRLPYLHYAGRLTNYDYWGQGTQVTVSS,high polyreactivity
22,QVQLVESGGGLVQAGGSLRLSCAASGYTFSYYTMGRYLQAPGKERELVAVITSAGGTYFADSVKGRFTISRDNAKNTVYLQMNSLKPEDTAVYYCAAERWADYVWIFIDDYDYLGQGTQVTVSS,low polyreactivity

row,Sequence,polyreactivity (PSR sort gate)
1,QVQLVESGGGLVQAGGSLRLSCAASGYTFTGYAMGWYRQAPGKERELVAAISWNGGSTFYADSVKGRFTISRDNAKNTVYLQMNSLKPEDTAVYYCATPRKLAYSPKLDYWGQGTQVTVSS,low polyreactivity
2,QVQLVESGGGLVQAGGSLRLSCAASGYTFTQNAMGWYRQAPGQERELVASLTSGGSTDYADSVKGRFTISRDNAKNTVYLQMNSVKPEDTAVYYCAAGTATDVASIGATKDYDYWGQVTQVTVSS,low polyreactivity
3,QVQLVESGGGLVQAGGSLRLSCAASGYTFTRYAMGWYRQAPGKEREFVAAITSGGGSTYYADSVKGRFTISRDNAKNTVYLQMNSLKPEDTAVYYCAADLTSLWYTVQLELDFWGQGTQVTVSS,low polyreactivity
4,QVQLVESGGGLVQAGGSLRLSCAASGYTFTSNAMGWYRQAPGKERELVAAITNVGSTNYADSVKGRFTISRDNAKNTVYLQMNSLKPEDTAVYYCAADWDAVYLQTADYDYWGQGTQVTVSS,low polyreactivity
5,QVQLVESGGGLVQAGGSLRLSCAASGYTFVIYAMGWYRQAPGKERELVAAITTIGGRTYYADSVKGRFTISRDNAKNTVYLLMNSLKPEDTAVYYCAADIRSNRLYDGGYWGQGTQVTVSS,low polyreactivity
6,QVQLVESGGGLVQAGGSLRLSCAASGYTFVKYAMGWYRQAPGKERELVASISWSGGRTYYADSVKGRFTISRDNAKNTVYLQMNSLKPEDTAVYYCATRPTWYSYDYWGHGTQVTVSS,high polyreactivity
7,QVQLVESGGGLVQAGGSLRLSCAASGYTFVVYAMGWYRQAPGKERELVARISSGGSTFYADSVKGRFTISRDNAKNTVYLQMNSLKPEDTAVYYCAAQWTRYRRRPMDYWGQGTQVTVSS,high polyreactivity
8,QVQLVESGGGLVQAGGSLRLSCAASGYTFVYNGMGWYRQAPGKERELVAAIRRRTGTTYYADSVKGRFTISRDNAKNTVYLQMNSLKPEDTAVYYCAATGFWGYDWGQGTQVTVSS,high polyreactivity
9,QVQLVESGGGLVQAGGSLRLSCAASGYTFWDYTMGWYRQAPGKEREFVAAINWSGGSTYYADSVKGRFTISRDNAKKTVYLQMNSLKPEDTAVYYCAARRGGRRGYDYWGQGTQVTVSS,high polyreactivity
10,QVQLVESGGGLVQAGGSLRLSCAASGYTFWDYTMGWYRQAPGKERELVAAISSSGSSTYYADSVKGRFTISRDNAKNTVYLQMNSLKPEDTAVYYCAAYSRRQWKYDYWGQGTQVTVSS,high polyreactivity
11,QVQLVESGGGLVQAGGSLRLSCAASGYTFYANAMGWYRQAPGKEREFVASINYSGGSTYYADSVKGRFTISRDNAKNTVYLQINSLKPEDTSVYYCAARTGTLDDWDYAYDYWGQGTQVTVSS,low polyreactivity
12,QVQLVESGGGLVQAGGSLRLSCAASGYTFYAYAMGWYRQAPGKERELVATISSGGRTYYADSVKGLFTISRDNAKNTVYLQMNSLKPEDTAVYYCAARKTRYISRFDYWGQGTQVTVSS,high polyreactivity
13,QVQLVESGGGLVQAGGSLRLSCAASGYTFYFYAMGWYRQAPGKEREFVAAIRSSGGRTYYADSVKGRFTISRDNAKNTVYLQMNSLKPEDTAVYYCAAAGYYYSVDGAGPRYDYWGQGTQVTVSS,low polyreactivity
14,QVQLVESGGGLVQAGGSLRLSCAASGYTFYIYVMGWYRQAPGKERELVAAISSGDSTNYADSVKGRFTISRDNAKNTVYLQMNSLKPEDTAVYYCNAVHRSIARGGGMDYWGQGTQVTVSS,low polyreactivity
15,QVQLVESGGGLVQAGGSLRLSCAASGYTFYKNTMGWYRQAPGKERELVARISRSGGSTYYADSVKGRFTISRDNAKNTVYLQMNSLKPEDTAVYYCAVRQGYRSGIYEYDYWGQGTQVTVSS,high polyreactivity
16,QVQLVESGGGLVQAGGSLRLSCAASGYTFYPYDIGWYRQAPGKERELVAAISWSGGGTYYADSVKGRFTISRDNAKNTVYLQMNSLKPEDTAVYYCAADLKALNQSYPGYEYWGQGTQVTVSS,low polyreactivity
17,QVQLVESGGGLVQAGGSLRLSCAASGYTFYQYAMGWYRQAPGKESELVADISRSGVSTYYADSVKGRFTISRDNAKNTVYLQMNSLKPEDTAVYYCAARRPFYRQLDYWGQGTQVTVSS,high polyreactivity
18,QVQLVESGGGLVQAGGSLRLSCAASGYTFYVYAMGWYRQAPGTERELVADISTSDGSTYYADSVKGRFTISRDNAKNTVYLQMNSLKPEDTAVYYCNTDGSHGLYDWFWPANNDYWGQGTQVTVSS,low polyreactivity
19,QVQLVESGGGLVQAGGSLRLSCAASGYTFYYNTMGWYRQAPGKERELVARINSAGRTNYADSVKGRFTISRDNAKNTVYLQMNSLKPKDTAVYYCAADGPANPDELKVNDFDYWGQGTQVTVSS,high polyreactivity
20,QVQLVESGGGLVQAGGSLRLSCAASGYTFYYSMGWYRQAPGKERELVAAISAGGGRTYYADSVKGRFTISRDNAKNTVYLQMNSLKPEDTAVYYCNRVYRLTAYGYDYWGQGTQVTVSS,high polyreactivity
21,QVQLVESGGGLVQAGGSLRLSCAASGYTILSYGMGWYRQAPGKERELVADISSGDRTNYADSVKGRFTISRDNAKNTVYLQMNSLKPEDTAVYYCNADRASSSVGYSDDFGHDSWGQGTQVTVSS,low polyreactivity
